One substance from paper PMC3490468 can be followed below.

Assay [1] addresses truncated portal protein cn3 (E25-Q456) of bacteriophage CNPH82 (bacteriophage CNPH82). Briefly: self-rotation function of X-ray diffraction data; crystal in space group C222(1), data to 4.2 A; MOLREP, resolution range 5-10 A, integration radius 87 A; structure not solved.
The target is the same in assay [2]. Briefly: SEC-MALS; 60 ul of 0.5 mg/ml cn3 on a BioSep SEC-s3000 column; 20 mM Tris pH 7.5, 500 mM NaCl, 10 mM MgCl2; size of the oligomer in solution.

Where “and” joins values, the source holds several entries; their conditions need not be identical. Equal values may be shown once.

Take “truncated portal protein cn3 (E25-Q456) of bacteriophage CNPH82 (domain or fragment)”: the stoichiometry N (subunits per oligomer) was 13 in assay [1]; 12.9 and 13 in assay [2].
